Experimental findings from patent US20110293618A1 (MEDICAL AND BIOLOGICAL LABORATORIES, published 2011) are described below.

Assay [1] concerns the target T1, E. coli-produced recombinant protein corresponding to aa 195-aa 453 in SEQ ID NO: 2 (human, UniProt Q96PD2 195-453).
T1 construct: pET28a, BL21, urea-solubilised, TALON-purified; vector-encoded tag residues not described
T1 sequence: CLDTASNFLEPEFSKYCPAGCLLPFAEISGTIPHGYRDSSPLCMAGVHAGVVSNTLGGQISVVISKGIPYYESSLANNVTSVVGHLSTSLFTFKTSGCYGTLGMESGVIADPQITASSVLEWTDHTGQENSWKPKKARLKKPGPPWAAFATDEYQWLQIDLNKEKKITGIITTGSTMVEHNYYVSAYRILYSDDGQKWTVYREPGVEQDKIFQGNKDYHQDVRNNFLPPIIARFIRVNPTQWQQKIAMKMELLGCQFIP
The assay is described as follows: ELISA on purified E. coli fragment. The method, then: (§1) Each antibody was assayed by ELISA using the purified proteins prepared described above.

For assay [2], the target named is T2, E. coli-produced recombinant protein corresponding to aa 195-aa 461 in SEQ ID NO: 2 (human, UniProt Q96PD2 195-461).
T2 construct: pET28a expression system; vector-encoded tag residues not described
T2 sequence: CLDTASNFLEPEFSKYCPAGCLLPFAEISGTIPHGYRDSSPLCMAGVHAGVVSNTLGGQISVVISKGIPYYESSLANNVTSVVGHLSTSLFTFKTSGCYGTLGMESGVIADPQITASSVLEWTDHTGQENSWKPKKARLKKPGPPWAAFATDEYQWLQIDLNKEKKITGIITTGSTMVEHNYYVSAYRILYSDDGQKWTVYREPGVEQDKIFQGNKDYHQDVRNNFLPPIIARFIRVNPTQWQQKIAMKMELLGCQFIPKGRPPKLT
The assay is described as follows: ELISA on purified E. coli fragment. The method, then: as §1
(In general: ELISA stands for enzyme-linked immunosorbent assay.)

Assay [3] has as its target T3, purified protein of the whole extracellular domain of human CLCP1 (amino acid positions 1 to 526), myc-His … (human, UniProt Q96PD2 67-526).
T3 construct: also called whole extracellular domain protein; complete extracellular domain protein; not shown: myc-His tag
T3 sequence: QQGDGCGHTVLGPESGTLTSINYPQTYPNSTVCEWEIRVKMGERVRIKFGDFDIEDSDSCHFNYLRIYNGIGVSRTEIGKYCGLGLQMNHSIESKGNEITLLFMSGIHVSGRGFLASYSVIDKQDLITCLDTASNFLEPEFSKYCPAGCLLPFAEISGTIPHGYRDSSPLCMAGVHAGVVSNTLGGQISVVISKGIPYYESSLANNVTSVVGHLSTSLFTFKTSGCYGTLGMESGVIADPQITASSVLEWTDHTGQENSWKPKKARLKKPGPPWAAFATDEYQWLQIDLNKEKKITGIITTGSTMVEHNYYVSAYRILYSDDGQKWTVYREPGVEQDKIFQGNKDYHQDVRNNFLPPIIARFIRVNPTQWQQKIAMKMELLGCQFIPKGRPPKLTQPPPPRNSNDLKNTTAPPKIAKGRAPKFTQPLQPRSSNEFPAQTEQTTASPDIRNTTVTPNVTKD
Put plainly: ELISA on purified extracellular domain protein, culture supernatants. The method, then:
Using the culture supernatants whose IgG concentrations had been determined, the activities of the chimeric antibody, humanized antibody, and serine-substituted humanized antibody were assessed and compared by ELISA for the purified protein of the extracellular domain of CLCP1 described in Example 21. […] Thus, humanized FA19-1 was successfully designed (FIGS. 42 and 43).

The target of assay [4] is T4, human CLCP1 (CUB, LCCL-homology, coagulation factor V/VIII homology domains protein), full length, on cells (human, UniProt Q96PD2 67-775).
T4 construct: also called ESDN; DCBLD2
T4 sequence: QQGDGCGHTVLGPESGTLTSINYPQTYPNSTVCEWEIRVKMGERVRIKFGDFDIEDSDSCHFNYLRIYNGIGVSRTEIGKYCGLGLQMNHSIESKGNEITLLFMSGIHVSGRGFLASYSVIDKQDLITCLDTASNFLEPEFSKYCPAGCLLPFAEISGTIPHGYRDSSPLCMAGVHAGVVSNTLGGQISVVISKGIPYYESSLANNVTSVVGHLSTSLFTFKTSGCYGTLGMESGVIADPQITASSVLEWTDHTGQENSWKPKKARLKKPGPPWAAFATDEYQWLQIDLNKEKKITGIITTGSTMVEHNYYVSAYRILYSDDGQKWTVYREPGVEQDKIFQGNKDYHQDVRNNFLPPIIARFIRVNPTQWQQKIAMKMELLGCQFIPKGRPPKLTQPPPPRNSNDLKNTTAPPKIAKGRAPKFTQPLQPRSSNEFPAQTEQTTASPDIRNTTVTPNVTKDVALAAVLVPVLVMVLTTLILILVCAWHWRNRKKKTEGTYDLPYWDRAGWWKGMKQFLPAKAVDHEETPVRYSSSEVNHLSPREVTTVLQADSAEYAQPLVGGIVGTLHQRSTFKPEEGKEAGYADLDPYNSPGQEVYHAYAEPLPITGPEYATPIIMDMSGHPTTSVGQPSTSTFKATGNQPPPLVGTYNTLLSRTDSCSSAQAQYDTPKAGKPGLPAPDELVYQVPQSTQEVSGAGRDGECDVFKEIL
The assay is described as follows: flow cytometry on H460-LNM35 cells, antibody 5 ug/ml, PE anti-mouse IgG. The method, then:
The antibodies prepared as described above were assessed for the reactivity to endogenous human CLCP1 by testing their reactivity to cells of high CLCP1-expressing line H460-LNM35 according to the following method. Anti-human CLCP1 antibody was purified from culture supernatant of each hybridoma clone by a conventional affinity purification method using Protein A-Sepharose. The purified antibodies were each diluted to 5 μg/ml, and the reaction intensity to H460-LNM35 was assessed by flow cytometry. In this assay, the anti-CLCP1 monoclonal antibody bound on the cell surface was detected by using a phycoerythrin-labeled anti-mouse IgG antibody. All samples were processed under the same conditions.
On the technique in general: In flow cytometry, cells or beads pass a laser one at a time.

In assay [5] the target is T5, purified partial protein containing the FA58C domain of human CLCP1 (amino acid positions 284 to 526), … (human, UniProt Q96PD2 284-526).
T5 construct: also called partial protein containing FA58C domain; region containing FA58C; not shown: myc-His tag
T5 sequence: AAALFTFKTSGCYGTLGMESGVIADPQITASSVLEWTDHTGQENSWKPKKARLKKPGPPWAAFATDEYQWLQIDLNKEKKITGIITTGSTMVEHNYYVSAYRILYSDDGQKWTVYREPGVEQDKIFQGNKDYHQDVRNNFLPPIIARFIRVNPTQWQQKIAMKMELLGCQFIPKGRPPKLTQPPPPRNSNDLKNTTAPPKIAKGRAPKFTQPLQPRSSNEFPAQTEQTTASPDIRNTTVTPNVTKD
The assay is described as follows: ELISA, hybridoma screening on immunogen-coated plate. The text has this: After expansion culture in HT medium [RPMI1640, HT-supplement (Invitrogen; 21060-017), Penicillin, and Streptomycin] supplemented with 15% FBS, the cells were cloned into single clones by the limiting dilution method. Eleven hybridoma clones producing anti-human CLCP1 antibody were obtained by the method described above.

In assay [6] the target is T6, endogenous human CLCP1 in H460-LNM35 cell lysate (human, UniProt Q96PD2 67-775).
T6 construct: Same protein as m1 but solubilised: SDS lysate for Western blot (denatured, reduced) or NP-40 lysate for immunoprecipitation; also called endogenous CLCP1
T6 sequence: T4 sequence
The assay is described as follows: Western blot of H460-LNM35 lysate; almost no signal in CLCP1-knockdown cells. The method, then: As described in the reference, Nagai H, et al., Oncogene 26: 4025-4031 (2007), a subline that constitutively expresses a CLCP1 siRNA as a short hairpin RNA (shRNA) biosynthesized in cells has been established from the high expressing CLCP1 cell line H460-LNM35. […] Western blotting was carried out using siCLCP1-3 #9 cells (CLCP1 Knockdown in FIG. 8) and H460-LNM35 cells.
2×10⁶ cells of the high expressing CLCP1 cell line H460-LNM35 and siCLCP1-3 #9 line were each suspended in lysis buffer [50 mM Tris (pH 6.8), 5% glycerol, 2% SDS], and the protein concentration was determined using the DC Protein Assay Kit (Bio-Rad). Then, 2-mercaptoethanol was added at 5.3% to the lysates. After heating, 20 μg each of the lysates were subjected to SDS-PAGE, followed by Western blotting with each of the antibodies and an HRP-labeled anti-mouse or anti-rabbit antibody. […] Meanwhile, there was almost no detectable signal in siCLCP1-3 #9 cells.
In general terms: A western blot detects proteins with antibodies after separation by electrophoresis.

Assay [7] concerns the target T4, human CLCP1 (CUB, LCCL-homology, …). Put plainly: flow cytometry on NCI-H460-LNM35 cells.
The target is the same in assay [8]. The assay is described as follows: cell-based or functional assay.
In assay [9] the target is T7, E. coli-produced recombinant protein corresponding to aa 195-aa 465 in SEQ ID NO: 2 (human, UniProt Q96PD2 195-465).
T7 construct: pET28a expression system; vector-encoded tag residues not described
T7 sequence: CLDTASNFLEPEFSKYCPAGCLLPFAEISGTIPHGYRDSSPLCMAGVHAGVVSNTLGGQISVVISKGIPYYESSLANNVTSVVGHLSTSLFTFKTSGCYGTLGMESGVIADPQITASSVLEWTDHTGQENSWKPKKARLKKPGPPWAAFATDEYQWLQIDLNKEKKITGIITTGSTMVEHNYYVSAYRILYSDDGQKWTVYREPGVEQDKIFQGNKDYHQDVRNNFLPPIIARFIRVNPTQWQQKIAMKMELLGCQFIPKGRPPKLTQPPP
Put plainly: ELISA on purified E. coli fragment. The method, then: as §1

Assay [10] concerns the target T8, E. coli-produced recombinant protein corresponding to aa 195-aa 457 in SEQ ID NO: 2 (human, UniProt Q96PD2 195-457).
T8 construct: pET28a expression system; vector-encoded tag residues not described
T8 sequence: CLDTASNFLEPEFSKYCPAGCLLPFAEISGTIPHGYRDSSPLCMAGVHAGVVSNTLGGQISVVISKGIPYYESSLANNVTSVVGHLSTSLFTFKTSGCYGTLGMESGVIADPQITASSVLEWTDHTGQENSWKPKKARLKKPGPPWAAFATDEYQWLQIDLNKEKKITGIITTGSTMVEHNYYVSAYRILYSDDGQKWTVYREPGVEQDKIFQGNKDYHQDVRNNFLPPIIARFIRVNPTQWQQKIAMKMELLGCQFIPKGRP
The assay is described as follows: ELISA on purified E. coli fragment. The method, then:
as §1

Substitutions are numbered along the chain they refer to.

B1: 6AA-17-2 (antibody, V domains shown)
VH: EVQLQQSGAELVRPGALVKLSCKASGFNIKDYYMHWVKQRPEQGLEWIGWIDPENDNTIYDPKFQGKASITADTSSNTAYLHLSSLTSEDTAVYYCARAYGYDDYYAMEYWGQGTSVTVSS
VL: NIMMTQSPSSLAVSAGEKVTMSCKSSQSVLYSSNQKNYLAWYQQKPGQSPKLLIYWTSTRESGVPDRFTGSGSGTDFTLTISSVQAEDLAIYYCHQYLYSYTFGGGTKL
notes: Mouse monoclonal raised against the partial protein containing the FA58C domain; also called Antibody 3
For B1, the binding result in assay [1] and in [2] was “no binding” throughout.

B2: serine-substituted humanized FA19-1 antibody (FA19RHA and serine-substituted light chain) (antibody, V domains shown)
VH: QVQLVQSGAEVKKPGASVKVSCKASGYTFTTYIMHWVRQAPGQRLEWIGYINPYNDGTKYNEKFKGRVTVTRDTSANTAYMELSSLKSEDTAVYYCARGANYYGSNYNWSFDVWGQGTLVTVSS
VL: DIQMTQSPSSLSASVGDRVTITCRASQDINKYIAWYQQKPGKAPKLLIYHTSTLQPGVPSRFSGSGSGTDFTLTISSLQPEDFATYYCLQYDYLWTFGGGTKVEIK
notes: it is the cysteine of the CDR2 motif HTCTLQP; also called serine-substituted humanized antibody; serine-substituted antibody
As to B2, the binding result in assay [3] is “binds”.

B3: FA17-9 (antibody, V domains shown)
VH: EVQLQQSGPELVKPGASVKMSCKASGYTFTTYVMHWVKQKPGQGLEWIGYINPYNDGTKYNEKFKGKATLTSDKSSSTAYMELSSLTSEDSAVYYCARGANYYGSSYNWSFDVWGAGTTVTVSS
VL: DIQMTQSPSSLSASLGGKVTITCKASQDINKYIAWYQHKPGEGPRLLIHYTSTLQPGIPSRFSGSGSGRDYSFSISNLEPEDIATYYCLQYDYLWTFGGGTKL
notes: Mouse monoclonal; also called antibody No. FA17-9; Antibody 1
For the molecule B3, the binding result in assay [4], in [5] and in assay [6] was “binds” each time.

B4: chimeric FA17-9 antibody (antibody, V domains shown)
VH: B3 VH
VL: B3 VL
notes: Variable regions of FA17-9 joined to constant regions derived from human IgG1 (LONZA vector)
On to B4, for which, in assay [7], the binding result is listed as “binds”.

B5: chimeric FA19-1 antibody (antibody, V domains shown)
VH: B3 VH with V33I, K67E, S106N
VL: B3 VL with K24R, E42K, Y50H, S52C
B5: in assay [8], the “ADCC, % cytotoxicity (lactate dehydrogenase release), A549 targets, antibody 10 ug/ml, E/T ratio 50, five donors” value came to 47.1% and the “ADCC, % cytotoxicity (lactate dehydrogenase release), NCI-H460-LNM35 targets, antibody 10 ug/ml, E/T ratio 50” value was 32.4%.

B6: FA19-1 (antibody, V domains shown)
VH: B3 VH with V33I, K67E, S106N
VL: B3 VL with K24R, E42K, Y50H, S52C
notes: Mouse monoclonal; also called antibody No. FA19-1; Antibody 2
Take B6: the binding result in assay [1], in [9], in [2] and in assay [10] was “no binding” each time.
